The record followed here is article PMC11172241, “Insight into the Mechanism of Lysogeny Control of phiCDKH01 Bacteriophage Infecting Clinical Isolate of Clostridioides difficile”.

Data set [1] deals with T1, phiCDKH01 XRE family repressor (XRE-His) (Clostridioides difficile phage phiCDKH01 (host strain CD34/Sr)), UPI000235AC6A.
T1 sequence: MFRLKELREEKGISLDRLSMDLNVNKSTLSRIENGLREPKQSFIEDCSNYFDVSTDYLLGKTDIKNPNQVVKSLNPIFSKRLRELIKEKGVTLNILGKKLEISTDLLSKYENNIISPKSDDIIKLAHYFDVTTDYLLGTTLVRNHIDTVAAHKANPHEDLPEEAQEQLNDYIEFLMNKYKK
Description: EMSA. The settings on record: 50 mM Tris-HCl pH 7.5, 50 mM NaCl, 200 mM KCl, 50 mM MgCl2, 5 mM EDTA, 5 mM DTT, 0.25 mg/mL BSA, 15 min, room temperature, 0.1 pmol DNA, 0-200 ng protein. (A gel shift assay detects complexes by their altered migration in electrophoresis.)

For data set [2], the target named is T2, phiCDKH01 XRE family repressor (XRE-His) (Clostridioides difficile phage …, UniProt UPI000235AC6A 1-181).
T2 sequence: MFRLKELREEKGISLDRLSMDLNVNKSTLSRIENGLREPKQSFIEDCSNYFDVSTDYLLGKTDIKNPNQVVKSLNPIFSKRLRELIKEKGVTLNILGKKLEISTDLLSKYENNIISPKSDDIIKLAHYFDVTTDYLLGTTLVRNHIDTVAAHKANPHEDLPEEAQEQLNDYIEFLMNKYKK
Nature of the data set: EMSA; 50 mM Tris-HCl pH 7.5, 50 mM NaCl, 200 mM KCl, 50 mM MgCl2, 5 mM EDTA, 5 mM DTT, 0.25 mg/mL BSA, 15 min, room temperature; 0.1 pmol DNA, 0-200 ng protein; 5% TBE gel. Conditions: protein: recombinant; tag encoded at 3' end by primer S4); chain copies: 2; blunt.

Regarding “CATTATAGCAACTTTTATTTACATTATAGCAACTTTTTTTGTTATTACAATTAAAATTGCCAAAAAAGCAACAAAAATATTGACTTTTAACATTTTTGTTGCTATTATATAA (double strand) [S2]”, in data set [1], the binding result is “binds”.
Still for that read-out and setting: the value for “GCAACTTTTTTTGTTATTACAATTAAAATTGCCAAAAAAGCAACAAAAATATTGACTTTTAACATTTTTGTTGCTATTATATAAACAAGAACTTGCTTATATAGCAAAAAGTTAGAGGGTGA (double strand) [S3 (Methods text says S4)]” was “binds”.
Regarding “GTTGCTATAATGTAAATAAAAGTTGCTATAATGAAAACTACAATAAAGGATGATTTTATATGTTTAGATTAAAAGAACTGAGAGAAG (double strand) [S1]”, the binding entry in data set [1] is given as “binds”.

B1: BIND (minimal XRE-binding fragment) (dsDNA)
DNA 1: TTACAATTAAAATTGCCAAAAAAGCAACAA
DNA 2: TTGTTGCTTTTTTGGCAATTTTAATTGTAA
As for B1, the binding result in data set [2] is reported as “binds”.
